PMC4479559

Key:
[1] = target: Clostridium oremlandii methionine sulfoxide reductase A, Sec-to-Cys form (Clostridium oremlandii (strain OhILAs)); assay: non-reducing SDS-PAGE; time course, 84 μM MsrA with 0.2 mM free methionine sulfoxide; dimer ratios by ImageJ, fitted with Prism 5
[2] = target: Clostridium oremlandii methionine sulfoxide reductase A, Sec-to-Cys form (Clostridium oremlandii (strain OhILAs)); assay: non-reducing SDS-PAGE; series of MsrA concentrations, 2 h with 0.2 mM free methionine sulfoxide; dimer ratios by ImageJ, fitted with Prism 5

D1/2 (reaction time to reach half Dmax) [1]: 5.8 min
D1/2 (concentration of MsrA to reach half Dmax) [2]: 7.6 µM
Dmax (maximal percent of dimer) [2]: 98%
Substance: Clostridium oremlandii methionine sulfoxide reductase A, Sec-to-Cys form (enzyme)
